Measurements: US20120189542A1 (published 2012)

Target: T1, human CD19 on CD19+ human lymphoma cells (Raji, Daudi, Ramos) (human, UniProt P15391 20-556)
T1 construct: whole, on cells; The target is presented on cells; also called CD19 antigen; CD19 molecule
T1 sequence (looked up): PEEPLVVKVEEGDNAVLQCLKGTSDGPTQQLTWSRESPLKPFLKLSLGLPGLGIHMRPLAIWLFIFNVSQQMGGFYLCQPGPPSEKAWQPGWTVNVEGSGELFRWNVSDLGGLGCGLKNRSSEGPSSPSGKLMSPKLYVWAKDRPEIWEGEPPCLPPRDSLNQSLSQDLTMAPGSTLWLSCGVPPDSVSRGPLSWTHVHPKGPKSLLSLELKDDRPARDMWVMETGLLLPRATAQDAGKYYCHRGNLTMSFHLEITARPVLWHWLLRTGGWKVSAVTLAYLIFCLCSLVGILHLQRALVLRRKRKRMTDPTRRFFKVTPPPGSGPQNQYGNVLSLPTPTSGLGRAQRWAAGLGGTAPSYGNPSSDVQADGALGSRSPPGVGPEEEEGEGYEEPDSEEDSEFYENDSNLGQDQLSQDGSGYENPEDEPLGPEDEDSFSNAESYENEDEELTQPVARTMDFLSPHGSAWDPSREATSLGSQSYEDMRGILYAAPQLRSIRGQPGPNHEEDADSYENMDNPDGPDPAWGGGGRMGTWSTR
Experiment: direct cell surface binding of 125I-labeled antibody to Raji cells, Scatchard plot analysis

Kd: 1.1 nM
B1: humanized anti-CD19 antibody hA19 (antibody, V domains shown)
VH: QVQLQQSGAEVKKPGSSVKVSCKASGYAFSSYWMNWVRQRPGQGLEWIGQIWPGDGDTNYNGKFKGRATITADESTNTAYMELSSLRSEDTAFYSCARRETTTVGRYYYAMDYWGQGTTVTVSS
VL: DIQLTQSPSSLSASVGDRVTITCKASQSVDYDGDSYLNWYQQIPGKAPKLLIYDASNLVSGIPPRFSGSGSGTDYTFTISSLQPEDIATYHCQQSTEDPWTFGGGTKLQIKR
notes: It was expressed from pdHL2, which carries human IgG heavy and light chain constant regions (IgG1 per the general description); also called humanized A19 antibody
